Reference: PMC9482650, “Quantitative fragmentomics allow affinity mapping of interactomes” (Nature Communications, 2022)
Changes are numbered by the printed parent chain.

T1: LIN7B, Q9HAP6
T1 sequence (Q9HAP6 88-185, limits assumed, looked up): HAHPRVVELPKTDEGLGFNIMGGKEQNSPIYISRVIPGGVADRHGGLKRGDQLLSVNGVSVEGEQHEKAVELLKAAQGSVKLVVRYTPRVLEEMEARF

T2: GRIP1_7, Q9Y3R0
T2 sequence (Q9Y3R0 999-1096, limits assumed, looked up): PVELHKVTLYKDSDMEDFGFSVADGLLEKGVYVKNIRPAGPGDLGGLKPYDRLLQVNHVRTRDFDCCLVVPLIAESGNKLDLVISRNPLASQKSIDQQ

T3: APBA2_2, Q99767
T3 sequence (Q99767 654-744, limits assumed, looked up): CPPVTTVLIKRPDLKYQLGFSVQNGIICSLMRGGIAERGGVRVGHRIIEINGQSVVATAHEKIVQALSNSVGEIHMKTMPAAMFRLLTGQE

T4: LIN7A, O14910
T4 sequence (O14910 103-200, limits assumed, looked up): T1 sequence (Q9HAP6 88-185, limits assumed, looked up) with A2S, I20V, V35I, D42E, Q65H, Q77K, G78D, R89K

T5: PDZD7_3, Q9H5P4
T5 sequence (Q9H5P4 857-944, limits assumed, looked up): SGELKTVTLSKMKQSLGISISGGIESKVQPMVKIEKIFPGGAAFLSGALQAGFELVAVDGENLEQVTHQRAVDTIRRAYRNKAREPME

T6: GRIP1_4, Q9Y3R0
T6 sequence (Q9Y3R0 467-571, limits assumed, looked up): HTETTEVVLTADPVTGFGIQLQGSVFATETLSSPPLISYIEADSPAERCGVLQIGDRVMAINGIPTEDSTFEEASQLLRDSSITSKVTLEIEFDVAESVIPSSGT

T7: FRMPD1, Q5SYB0
T7 sequence (Q5SYB0 52-145, limits assumed, looked up): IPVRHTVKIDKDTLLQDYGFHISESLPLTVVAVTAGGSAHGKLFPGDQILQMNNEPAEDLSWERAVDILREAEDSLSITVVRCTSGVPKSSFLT

T8: TIAM2, Q8IVF5
T8 sequence (Q8IVF5 885-986, limits assumed, looked up): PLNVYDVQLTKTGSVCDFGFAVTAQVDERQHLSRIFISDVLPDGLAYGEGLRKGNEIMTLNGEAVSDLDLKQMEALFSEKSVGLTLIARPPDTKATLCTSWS

T9: PCLO, Q9Y6V0
T9 sequence (Q9Y6V0 4491-4600, limits assumed, looked up): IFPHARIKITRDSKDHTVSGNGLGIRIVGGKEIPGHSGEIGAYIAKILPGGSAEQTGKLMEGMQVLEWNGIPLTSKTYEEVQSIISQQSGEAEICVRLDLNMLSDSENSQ

T10: PTPN13_1, Q12923
T10 sequence (Q12923 1088-1188, limits assumed, looked up): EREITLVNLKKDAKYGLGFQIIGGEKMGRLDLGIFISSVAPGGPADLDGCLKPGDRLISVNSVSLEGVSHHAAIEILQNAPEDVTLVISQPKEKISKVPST


Columns and labels:
Assay in all cases: holdup assay
Parameters in all cases: key: below the threshold = too weak to quantify, mostly under pKd 3.1 to 4
Details in all cases: plain residues with an end cap or a label only (N-terminal biotin on a linker: ado-ado)
LIN7B, Q9HAP6 = target: T1, LIN7B, Q9HAP6
GRIP1_7, Q9Y3R0 = target: T2, GRIP1_7, Q9Y3R0
MAGI2_4, Q86UL8 = target: MAGI2_4, Q86UL8
MAGI2_4, Q86UL8, sequence (Q86UL8 772-865): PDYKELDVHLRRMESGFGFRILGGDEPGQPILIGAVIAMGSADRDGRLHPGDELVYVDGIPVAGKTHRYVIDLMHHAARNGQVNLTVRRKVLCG

TJP1_2, Q07157 = target: TJP1_2, Q07157
TJP1_2, Q07157, sequence (Q07157 181-274): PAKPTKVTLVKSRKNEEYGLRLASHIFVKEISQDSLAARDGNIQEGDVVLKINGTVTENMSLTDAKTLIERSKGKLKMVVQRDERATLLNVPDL

FRMPD3, Q5JV73 = target: FRMPD3, Q5JV73
FRMPD3, Q5JV73, sequence (Q5JV73 12-100): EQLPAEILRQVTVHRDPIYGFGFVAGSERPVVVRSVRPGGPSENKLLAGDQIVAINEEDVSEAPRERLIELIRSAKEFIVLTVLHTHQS

APBA2_2, Q99767 = target: T3, APBA2_2, Q99767
LIN7A, O14910 = target: T4, LIN7A, O14910
GRID2IP_1, A4D2P6 = target: GRID2IP_1, A4D2P6
GRID2IP_1, A4D2P6, sequence (A4D2P6 1-87): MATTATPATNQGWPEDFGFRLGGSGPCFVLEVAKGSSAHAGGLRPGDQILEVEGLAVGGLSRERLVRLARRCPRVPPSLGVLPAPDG

PDZD7_3, Q9H5P4 = target: T5, PDZD7_3, Q9H5P4
DLG2_3, Q15700 = target: DLG2_3, Q15700
GRIP1_4, Q9Y3R0 = target: T6, GRIP1_4, Q9Y3R0
DLG4_2, P78352 = target: DLG4_2, P78352
DLG4_2, P78352, sequence (P78352 155-259): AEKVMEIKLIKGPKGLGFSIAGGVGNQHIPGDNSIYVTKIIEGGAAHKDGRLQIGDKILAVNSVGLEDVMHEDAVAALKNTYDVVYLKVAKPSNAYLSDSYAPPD

GRID2IP_2, A4D2P6 = target: GRID2IP_2, A4D2P6
GRID2IP_2, A4D2P6, sequence (A4D2P6 272-370): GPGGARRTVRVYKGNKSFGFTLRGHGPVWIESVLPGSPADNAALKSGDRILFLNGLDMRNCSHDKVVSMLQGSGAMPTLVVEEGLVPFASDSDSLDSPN

FRMPD1, Q5SYB0 = target: T7, FRMPD1, Q5SYB0
MAGI2_3, Q86UL8 = target: MAGI2_3, Q86UL8
MAGI2_3, Q86UL8, sequence (Q86UL8 600-682): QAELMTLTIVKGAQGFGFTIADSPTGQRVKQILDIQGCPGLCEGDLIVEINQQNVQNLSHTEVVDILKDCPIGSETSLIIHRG

FRMPD4, Q14CM0 = target: FRMPD4, Q14CM0
FRMPD4, Q14CM0, sequence (Q14CM0 67-160): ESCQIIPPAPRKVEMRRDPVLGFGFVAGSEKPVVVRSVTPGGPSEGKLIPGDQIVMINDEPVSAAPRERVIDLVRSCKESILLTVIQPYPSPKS

PDZRN4_1, Q6ZMN7 = target: PDZRN4_1, Q6ZMN7
PDZRN4_1, Q6ZMN7, sequence (Q6ZMN7 213-318): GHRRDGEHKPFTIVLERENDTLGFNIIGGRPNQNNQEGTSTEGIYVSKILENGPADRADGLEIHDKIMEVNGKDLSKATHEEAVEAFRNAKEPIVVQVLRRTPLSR

LNX1_3, Q8TBB1 = target: LNX1_3, Q8TBB1
LNX1_3, Q8TBB1, sequence (Q8TBB1 500-596): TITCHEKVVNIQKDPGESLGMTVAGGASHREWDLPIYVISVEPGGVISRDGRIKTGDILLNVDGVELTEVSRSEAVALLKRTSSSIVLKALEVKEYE

IL16_1, Q14005 = target: IL16_1, Q14005
IL16_1, Q14005, sequence (Q14005 210-306): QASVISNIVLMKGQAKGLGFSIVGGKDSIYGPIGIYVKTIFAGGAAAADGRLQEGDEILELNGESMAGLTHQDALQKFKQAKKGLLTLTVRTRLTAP

SCRIB_1, Q14160 = target: SCRIB_1, Q14160
SCRIB_1, Q14160, sequence (Q14160 718-814): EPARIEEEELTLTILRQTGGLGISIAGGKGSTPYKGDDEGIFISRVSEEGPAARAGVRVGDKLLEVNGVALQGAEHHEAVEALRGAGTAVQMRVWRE

TIAM2, Q8IVF5 = target: T8, TIAM2, Q8IVF5
LNX1_1, Q8TBB1 = target: LNX1_1, Q8TBB1
LNX1_1, Q8TBB1, sequence (Q8TBB1 261-371): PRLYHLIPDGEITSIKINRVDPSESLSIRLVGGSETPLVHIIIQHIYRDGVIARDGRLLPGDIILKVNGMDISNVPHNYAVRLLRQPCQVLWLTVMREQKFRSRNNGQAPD

MAST1, Q9Y2H9 = target: MAST1, Q9Y2H9
MAST1, Q9Y2H9, sequence (Q9Y2H9 962-1065): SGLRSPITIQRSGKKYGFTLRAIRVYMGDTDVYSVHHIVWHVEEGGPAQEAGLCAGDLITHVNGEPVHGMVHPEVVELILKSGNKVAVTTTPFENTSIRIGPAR

MAGI2_6, Q86UL8 = target: MAGI2_6, Q86UL8
MAGI2_6, Q86UL8, sequence (Q86UL8 1141-1229): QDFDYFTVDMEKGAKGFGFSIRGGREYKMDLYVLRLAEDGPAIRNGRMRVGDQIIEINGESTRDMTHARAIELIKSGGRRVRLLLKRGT

PCLO, Q9Y6V0 = target: T9, PCLO, Q9Y6V0
PTPN13_1, Q12923 = target: T10, PTPN13_1, Q12923
Inadl_5, Q8NI35 = target: Inadl_5, Q8NI35
Inadl_5, Q8NI35, sequence (Q8NI35 673-780): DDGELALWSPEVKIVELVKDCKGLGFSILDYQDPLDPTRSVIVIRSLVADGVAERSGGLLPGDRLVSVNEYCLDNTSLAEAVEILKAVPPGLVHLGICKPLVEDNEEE

| Binder | pKd (LIN7B, Q9HAP6) | pKd (GRIP1_7, Q9Y3R0) | pKd (MAGI2_4, Q86UL8) | pKd (TJP1_2, Q07157) | pKd (FRMPD3, Q5JV73) | pKd (APBA2_2, Q99767) | pKd (LIN7A, O14910) | pKd (GRID2IP_1, A4D2P6) | pKd (PDZD7_3, Q9H5P4) | pKd (DLG2_3, Q15700) | pKd (GRIP1_4, Q9Y3R0) | pKd (DLG4_2, P78352) | pKd (GRID2IP_2, A4D2P6) | pKd (FRMPD1, Q5SYB0) | pKd (MAGI2_3, Q86UL8) | pKd (FRMPD4, Q14CM0) | pKd (PDZRN4_1, Q6ZMN7) | pKd (LNX1_3, Q8TBB1) | pKd (IL16_1, Q14005) | pKd (SCRIB_1, Q14160) | further results |
| --- | --- | --- | --- | --- | --- | --- | --- | --- | --- | --- | --- | --- | --- | --- | --- | --- | --- | --- | --- | --- | --- |
| NVYGIESVKI [GRIA2, P42262] | 3.74 | below the threshold | below the threshold | below the threshold | below the threshold | 3.6 | below the threshold | below the threshold | below the threshold | 3.81 | below the threshold | 3.73 | below the threshold | below the threshold | below the threshold | below the threshold | below the threshold | below the threshold | below the threshold | below the threshold | pKd (TIAM2, Q8IVF5): 4.21; pKd (LNX1_1, Q8TBB1): 4.07; pKd (MAST1, Q9Y2H9): 4.27; pKd (MAGI2_6, Q86UL8): below the threshold; pKd (PCLO, Q9Y6V0): below the threshold; pKd (PTPN13_1, Q12923): below the threshold; pKd (Inadl_5, Q8NI35): below the threshold |
| GIKKITSTAL [RPS6KA3, P51812] | below the threshold | 3.56 | 3.8 | below the threshold | below the threshold | below the threshold | below the threshold | below the threshold | 4.92 | 3.63 | 3.62 | 4.18 | 4.74 | below the threshold | 3.51 | 4.26 | 4.6 | below the threshold | 3.5 | 4.94 | pKd (TIAM2, Q8IVF5): below the threshold; pKd (LNX1_1, Q8TBB1): 3.8; pKd (MAST1, Q9Y2H9): 5.06; pKd (MAGI2_6, Q86UL8): 4.08; pKd (PCLO, Q9Y6V0): below the threshold; pKd (PTPN13_1, Q12923): below the threshold; pKd (Inadl_5, Q8NI35): 3.52 |
| TISFTQTSQF [SLC1A1, P43005] | below the threshold | below the threshold | 3.58 | below the threshold | below the threshold | below the threshold | below the threshold | below the threshold | below the threshold | 3.71 | below the threshold | below the threshold | below the threshold | below the threshold | below the threshold | below the threshold | below the threshold | below the threshold | below the threshold | 3.5 | pKd (TIAM2, Q8IVF5): 4.14; pKd (LNX1_1, Q8TBB1): below the threshold; pKd (MAST1, Q9Y2H9): below the threshold; pKd (MAGI2_6, Q86UL8): below the threshold; pKd (PCLO, Q9Y6V0): below the threshold; pKd (PTPN13_1, Q12923): below the threshold; pKd (Inadl_5, Q8NI35): below the threshold |

Further lines, with some results ahead:

| pKd (LIN7B, Q9HAP6) | pKd (GRIP1_7, Q9Y3R0) | pKd (MAGI2_4, Q86UL8) | pKd (TJP1_2, Q07157) | pKd (FRMPD3, Q5JV73) | pKd (APBA2_2, Q99767) | pKd (LIN7A, O14910) | pKd (GRID2IP_1, A4D2P6) | pKd (PDZD7_3, Q9H5P4) | pKd (DLG2_3, Q15700) | pKd (GRIP1_4, Q9Y3R0) | pKd (DLG4_2, P78352) | pKd (GRID2IP_2, A4D2P6) | pKd (FRMPD1, Q5SYB0) | pKd (MAGI2_3, Q86UL8) | pKd (FRMPD4, Q14CM0) | pKd (PDZRN4_1, Q6ZMN7) | pKd (LNX1_3, Q8TBB1) | pKd (IL16_1, Q14005) | pKd (SCRIB_1, Q14160) | Binder | further results |
| --- | --- | --- | --- | --- | --- | --- | --- | --- | --- | --- | --- | --- | --- | --- | --- | --- | --- | --- | --- | --- | --- |
| 3.7 | below the threshold | below the threshold | below the threshold | below the threshold | below the threshold | below the threshold | below the threshold | below the threshold | 3.54 | below the threshold | below the threshold | below the threshold | below the threshold | below the threshold | below the threshold | below the threshold | below the threshold | below the threshold | below the threshold | NNNVVKVDSV [MTNR1A, P48039] | pKd (TIAM2, Q8IVF5): 3.77; pKd (LNX1_1, Q8TBB1): below the threshold; pKd (MAST1, Q9Y2H9): below the threshold; pKd (MAGI2_6, Q86UL8): below the threshold; pKd (PCLO, Q9Y6V0): below the threshold; pKd (PTPN13_1, Q12923): below the threshold; pKd (Inadl_5, Q8NI35): below the threshold |
| below the threshold | below the threshold | 3.62 | below the threshold | below the threshold | below the threshold | below the threshold | below the threshold | 4.61 | 4.26 | below the threshold | 4.48 | 4.08 | below the threshold | 3.67 | below the threshold | below the threshold | below the threshold | below the threshold | 3.88 | PSHPRLQTHV [KIRREL2, Q6UWL6] | pKd (TIAM2, Q8IVF5): 3.73; pKd (LNX1_1, Q8TBB1): below the threshold; pKd (MAST1, Q9Y2H9): 4.5; pKd (MAGI2_6, Q86UL8): below the threshold; pKd (PCLO, Q9Y6V0): below the threshold; pKd (PTPN13_1, Q12923): below the threshold; pKd (Inadl_5, Q8NI35): below the threshold |
